Experimental data as given in patent publication US9476056B2, “Recombinant vector for producing and secreting peptide or protein of interest by propionibacteria and applications thereof” (INSTITUT NATIONAL DE LA SANTE ET DE LA RECHERCHE MEDICALE …, priority 2010, dated 2016).

Test system: HT29 human colon cancer cells
Experiment: Cytotoxicity (viability) test on HT29 cells, methylene blue staining
Assay type: cell-based
Conditions: TRAIL alone, sublethal doses 25, 50 and 100 ng/ml, 24 hours
Protocol: FIG. 1: Graphs illustrating the synergy observed in vitro between TRAIL and P. freudenreichii metabolites. HT29 colon cancer cells were treated with sublethal doses of TRAIL (25 ng/ml, 50 ng/ml and 100 ng/ml). Various doses of SCFA (propionate/acetate SCFA, FIG. 1A) or of P. freudenreichii supernatant (FIG. 1B) were used in co-treatment. Viability of the HT29 cells was determined after 24 hours of treatment. […] More precisely, the viability illustrated in FIG. 1 was determined using the following cytotoxicity test. HT29 human colon cancer cells (ATCC, Biovalley) were cultured in 96-well plates (30,000 cells/well) for 24 hours. […] At the end of treatment (24 hours), the medium was discarded and the adherent cells were washed three times with 1× PBS (100 μl/well) and fixed in 99% ethanol (100 μl/well) for 30 minutes. After discarding the ethanol, the fixed cells were air dried and then stained for 30 minutes with methylene blue (diluted in 1× borate buffer). After three washings in water and drying (roughly 30 minutes), 100 μl of hydrochloric acid (0.1 N) was added to the wells. The plates were then analyzed by spectrophotometer at a wavelength of 620 nm (iEMS Reader MF; Lab-systems, Helsinki, Finland).

B1: TRAIL: cytokine TNF-related apoptosis-inducing ligand; SuperKillerTRAIL™ (Alexis Biochemicals) used in the HT29 test (protein)
chain: TSEETISTVQEKQQNISPLVRERGPQRVAAHITGTRGRSNTLSSPNSKNEKALGRKINSWESSRSGHSFLSNLHLRNGELVIHEKGFYYIYSQTYFRFQEEIKENTKNDKQMVQYIYKYTSYPDPILLMKSARNSCWSKDAEYGLYSIYQGGIFELKENDRIFVSVTNEHLIDMDHEASFFGAFLVG
In the case of B1, the “cell death (viability of HT29 cells)” value is reported as “do not significantly induce cell death”.
